Reference: patent US20200354475A1 (KITE PHARMA, published 2020)

Molecular target: T1, CAR comprising the anti-CD19 scFv FMC63 (SEQ ID NO: 1)
T1 construct: also called FMC63 CAR; CAR presenting the anti-CD19 scFv FMC63; not shown: rest of the CAR (hinge, transmembrane and signalling domains) is not described for the constructs used
Assay: immunohistochemistry on fixed cell pellets of CAR T cells presenting the FMC63 scFv, PBMC as control
Description: Several antibodies disclosed herein, (Clones 7 and 13) were assessed with respect to their ability to function as reagents in immunohistochemistry (IHC) studies. To create the fixed cell pellets for IHC staining, ˜2e6 CAR T cells presenting the anti-CD19 scFv FMC63 (SEQ ID NO: 1) were centrifuged and washed with PBS. The cells were resuspended in PBS containing 0.45% paraformaldehyde (PFA) and incubated on a shaking platform for 2 hours at room temperature. After the incubation, the cells were washed once more with PBS and resuspended in PBS with 5% BSA.

T1 sequence (chain, as listed by the source): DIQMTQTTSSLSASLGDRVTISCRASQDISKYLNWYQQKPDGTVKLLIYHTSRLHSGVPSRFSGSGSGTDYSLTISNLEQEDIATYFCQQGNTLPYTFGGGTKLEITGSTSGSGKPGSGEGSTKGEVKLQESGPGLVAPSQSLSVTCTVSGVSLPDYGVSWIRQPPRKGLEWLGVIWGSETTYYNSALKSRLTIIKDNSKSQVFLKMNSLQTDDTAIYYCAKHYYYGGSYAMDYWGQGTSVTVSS

B1: Clone 7 (antibody, V domains shown)
VH: QEQLEESGGDLVKPGGTLTVTCKASGFSFSNNGICWVRQAPGKGLEWIGCLYVGSSDTTYYASWAKGRFTISKSSSTTVTLQMTSLTVADTATYFCTINLGLWGPGTLVTVSS
VL: AIVVTQTPSSKSVPVGGTVTINCQASESVYNSDWLAWYQQKPGQPPKQLIYAASTLASGVPSRFKGSGSGTQFTLTISDVVCDDAATYYCAGYKSSSTDGIAFGGGTEVVVKG
notes: Rabbit monoclonal antibody from a hybridoma; also called antibody Clone 7
binding result: binds
